We go through one molecule from PMC3917153 (Biochemistry, 2013).

The experiment has as its target T1, GB-yeIF5-B6 (S. cerevisiae, UniProt P38431 241-405).
T1 sequence (looked up): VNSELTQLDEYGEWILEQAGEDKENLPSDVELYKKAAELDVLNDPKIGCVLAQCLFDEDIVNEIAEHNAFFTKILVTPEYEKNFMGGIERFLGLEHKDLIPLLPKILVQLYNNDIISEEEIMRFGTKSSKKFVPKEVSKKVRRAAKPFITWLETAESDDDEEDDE
Description: pull-down.

B1: GST-yeIF1A ΔC (lacking aa. 108-153) (domain or fragment, S. cerevisiae, UniProt P38912 1-107, looked up)
chain: MGKKNTKGGKKGRRGKNDSDGPKRELIYKEEGQEYAQITKMLGNGRVEASCFDGNKRMAHIRGKLRKKVWMGQGDIILVSLRDFQDDQCDVVHKYNLDEARTLKNQG
In the case of B1, the binding result is listed as “binds”.
